The values below come from publication PMC10457330.

Test [1] addresses photoactivated bovine rhodopsin (bovine) (UniProt P02699).
Test [2] shares this target. This is another data set of the same source.
Test [3] has as its target P23H bovine opsin (bovine) (UniProt P02699).

B1: Nb2 (llama nanobody against bovine rhodopsin) (VHH)
VHH: QVQLVESGGGLVQPGGSLRLSCAASGFTFSKYAMNWVRQPPGKGLEWVSGIRPSGDNPTYADSVEGRFTIIRDNDKKMVYLQMTSLKTEDTAVYYCTRGYGTMTIEGQGTQVTVSS
Consider B1, for which, in test [1], the UV-Vis decay of A478 nm after addition of 5 mM hydroxylamine, plateau against bRho* alone stood at 4 times. Besides, the intrinsic Trp fluorescence at 330 nm after illumination (Meta II decay, release of retinal) in test [2] was found to be 3 fold. For the same molecule, in test [3], the opsin level by western blot (1D4) in HEK293S cells co-expressing Nb2 intracellularly, against the non-binding Nb16 control is 2 fold.
